According to patent US9266964:

Experiments:
human plasma kallikrein [1] = molecular target: T1, human plasma kallikrein (human, UniProt P03952 20-390; P03952 391-638); assay: apparent inhibition constant (Ki,app) against human pKal, enzyme inhibition
T1 construct: also called pKal; human pKal
T1 sequence (P03952 20-390, chain 1 of 2): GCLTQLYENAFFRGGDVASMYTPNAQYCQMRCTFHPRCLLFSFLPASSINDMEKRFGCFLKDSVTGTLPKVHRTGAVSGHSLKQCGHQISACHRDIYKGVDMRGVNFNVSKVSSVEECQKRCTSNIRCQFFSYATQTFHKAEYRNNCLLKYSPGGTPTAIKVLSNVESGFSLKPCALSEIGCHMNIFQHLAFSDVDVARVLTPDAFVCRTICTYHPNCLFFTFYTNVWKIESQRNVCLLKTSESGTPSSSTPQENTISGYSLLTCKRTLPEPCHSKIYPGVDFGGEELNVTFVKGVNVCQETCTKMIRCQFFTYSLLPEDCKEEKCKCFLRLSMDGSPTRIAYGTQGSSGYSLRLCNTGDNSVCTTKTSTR
T1 sequence (P03952 391-638, chain 2 of 2): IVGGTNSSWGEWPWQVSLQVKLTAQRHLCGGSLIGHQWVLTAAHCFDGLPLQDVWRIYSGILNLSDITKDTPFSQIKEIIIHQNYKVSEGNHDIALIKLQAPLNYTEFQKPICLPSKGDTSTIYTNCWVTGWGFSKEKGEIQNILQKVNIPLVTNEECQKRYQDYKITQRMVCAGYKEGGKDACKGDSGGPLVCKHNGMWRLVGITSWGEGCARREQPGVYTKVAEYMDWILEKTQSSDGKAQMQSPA

human plasma kallikrein [2] = molecular target: human plasma kallikrein (human, UniProt P03952 20-390; P03952 391-638); assay: cell-based or functional assay
Target sequence in this assay (P03952 20-390, chain 1 of 2): as the sequence (P03952 20-390, chain 1 of 2) above
Target sequence in this assay (P03952 391-638, chain 2 of 2): as the sequence (P03952 391-638, chain 2 of 2) above

B1: X67-B03 (antibody, V domains shown)
VH: EVQLLESGGGLVQPGGSLRLSCAASGFTFSAYSMIWVRQAPGKGLEWVSYIRPSGGRTTYADSVKGRFTISRDNSKNTLYLQMNSLRAEDTAVYYCARGGLLLWSRELKSNYFDYWGQGTLVTVSS
VL: DIQMTQSPSSLSAFVGDRVTITCRASQPIDNYLNWYHQKPGKAPKLLIYAASRLQSGVPSRLSGSGFGTDFTLTISSLQPEDFGNYYCQQSYTVPYTFGGGTKVEIR
notes: Single point mutant (F to S at P2 of HC CDR3) of M142-H08; Only variable domains and the start of CH1 are printed; also called 559A-X67-B03
- Ki (human plasma kallikrein [1]): 2.1 nM

B2: X67-D03 (antibody, V domains shown)
VH: EVQLLESGGGLVQPGGSLRLSCAASGFTFSAYSMIWVRQAPGKGLEWVSYIRPSGGRTTYADSVKGRFTISRDNSKNTLYLQMNSLRAEDTAVYYCARGGLLLWNRELKSNYFDYWGQGTLVTVSS
VL: DIQMTQSPSSLSAFVGDRVTITCRASQPIDNYLNWYHQKPGKAPKLLIYAASRLQSGVPSRLSGSGFGTDFTLTISSLQPEDFGNYYCQQSYTVPYTFGGGTKVEIR
notes: Single point mutant (F to N at P2 of HC CDR3) of M142-H08; Only variable domains and the start of CH1 are printed; also called 559A-X67-D03
- Ki (human plasma kallikrein [1]): 0.1 nM

B3: X67-F01 (antibody, V domains shown)
VH: EVQLLESGGGLVQPGGSLRLSCAASGFTFSAYSMIWVRQAPGKGLEWVSYIRPSGGRTTYADSVKGRFTISRDNSKNTLYLQMNSLRAEDTAVYYCARGGLLLWQRELKSNYFDYWGQGTLVTVSS
VL: DIQMTQSPSSLSAFVGDRVTITCRASQPIDNYLNWYHQKPGKAPKLLIYAASRLQSGVPSRLSGSGFGTDFTLTISSLQPEDFGNYYCQQSYTVPYTFGGGTKVEIR
notes: Single point mutant (F to Q at P2 of HC CDR3) of M142-H08; Only variable domains and the start of CH1 are printed; also called 559A-X67-F01
- Ki (human plasma kallikrein [1]): 0.9 nM

B4: X67-E04 (antibody, V domains shown)
VH: EVQLLESGGGLVQPGGSLRLSCAASGFTFSAYSMIWVRQAPGKGLEWVSYIRPSGGRTTYADSVKGRFTISRDNSKNTLYLQMNSLRAEDTAVYYCARGGLLLWDRELKSNYFDYWGQGTLVTVSS
VL: DIQMTQSPSSLSAFVGDRVTITCRASQPIDNYLNWYHQKPGKAPKLLIYAASRLQSGVPSRLSGSGFGTDFTLTISSLQPEDFGNYYCQQSYTVPYTFGGGTKVEIR
notes: Single point mutant (F to D at P2 of HC CDR3) of M142-H08; Only variable domains and the start of CH1 are printed; also called 559A-X67-E04
- Ki (human plasma kallikrein [1]): 1.3 nM

B5: X67-G04 (antibody, V domains shown)
VH: EVQLLESGGGLVQPGGSLRLSCAASGFTFSAYSMIWVRQAPGKGLEWVSYIRPSGGRTTYADSVKGRFTISRDNSKNTLYLQMNSLRAEDTAVYYCARGGLLLWARELKSNYFDYWGQGTLVTVSS
VL: DIQMTQSPSSLSAFVGDRVTITCRASQPIDNYLNWYHQKPGKAPKLLIYAASRLQSGVPSRLSGSGFGTDFTLTISSLQPEDFGNYYCQQSYTVPYTFGGGTKVEIR
notes: Single point mutant (F to A at P2 of HC CDR3) of M142-H08; Only variable domains and the start of CH1 are printed; also called 559A-X67-G04
- Ki (human plasma kallikrein [1]): 0.35 nM

B6: X67-F10 (antibody, V domains shown)
VH: EVQLLESGGGLVQPGGSLRLSCAASGFTFSAYSMIWVRQAPGKGLEWVSYIRPSGGRTTYADSVKGRFTISRDNSKNTLYLQMNSLRAEDTAVYYCARGGLLLWTRELKSNYFDYWGQGTLVTVSS
VL: DIQMTQSPSSLSAFVGDRVTITCRASQPIDNYLNWYHQKPGKAPKLLIYAASRLQSGVPSRLSGSGFGTDFTLTISSLQPEDFGNYYCQQSYTVPYTFGGGTKVEIR
notes: Single point mutant (F to T at P2 of HC CDR3) of M142-H08; Only variable domains and the start of CH1 are printed; also called 559A-X67-F10
- Ki (human plasma kallikrein [1]): 1.3 nM

B7: X67-C09 (antibody, V domains shown)
VH: EVQLLESGGGLVQPGGSLRLSCAASGFTFSAYSMIWVRQAPGKGLEWVSYIRPSGGRTTYADSVKGRFTISRDNSKNTLYLQMNSLRAEDTAVYYCARGGLLLWGRELKSNYFDYWGQGTLVTVSS
VL: DIQMTQSPSSLSAFVGDRVTITCRASQPIDNYLNWYHQKPGKAPKLLIYAASRLQSGVPSRLSGSGFGTDFTLTISSLQPEDFGNYYCQQSYTVPYTFGGGTKVEIR
notes: Single point mutant (F to G at P2 of HC CDR3) of M142-H08; Only variable domains and the start of CH1 are printed; also called 559A-X67-C09
- Ki (human plasma kallikrein [1]): 8.6 nM

B8: X67-C03 (antibody, V domains shown)
VH: EVQLLESGGGLVQPGGSLRLSCAASGFTFSAYSMIWVRQAPGKGLEWVSYIRPSGGRTTYADSVKGRFTISRDNSKNTLYLQMNSLRAEDTAVYYCARGGLLLWMRELKSNYFDYWGQGTLVTVSS
VL: DIQMTQSPSSLSAFVGDRVTITCRASQPIDNYLNWYHQKPGKAPKLLIYAASRLQSGVPSRLSGSGFGTDFTLTISSLQPEDFGNYYCQQSYTVPYTFGGGTKVEIR
notes: Single point mutant (F to M at P2 of HC CDR3) of M142-H08; the printed HC is used; Only variable domains and the start of CH1 are printed; also called 559A-X67-C03
- Ki (human plasma kallikrein [1]): 0.7 nM

B9: X67-H04 (antibody, V domains shown)
VH: EVQLLESGGGLVQPGGSLRLSCAASGFTFSAYSMIWVRQAPGKGLEWVSYIRPSGGRTTYADSVKGRFTISRDNSKNTLYLQMNSLRAEDTAVYYCARGGLLLWERELKSNYFDYWGQGTLVTVSS
VL: DIQMTQSPSSLSAFVGDRVTITCRASQPIDNYLNWYHQKPGKAPKLLIYAASRLQSGVPSRLSGSGFGTDFTLTISSLQPEDFGNYYCQQSYTVPYTFGGGTKVEIR
notes: Single point mutant (F to E at P2 of HC CDR3) of M142-H08; Only variable domains and the start of CH1 are printed; also called 559A-X67-H04
- Ki (human plasma kallikrein [1]): 3.6 nM

B10: M203-A03 (Fab, V domains shown)
VH: EVQLLESGGGLVQPGGSLRLSCAASGFTFSVYMMIWVRQAPGKGLEWVSSISPSGGQTTYADSVKGRFTISRDNSKNTLYLQMNSLRAEDTAVYYCARVARGIAARSRTSYFDYWGQGTLVTVSS
VL: DIQMTQSPGTLSLSPGERATLSCRTSQFVNSNYLAWYQQTPGQAPRLLIYGASSRATGIPDRFSGTGYGTDFTLTISRLEPEDYGTYYCQQSSRTPWTFGQGTRVEIK
- % inhibition at 10 nM (human plasma kallikrein [2]): 69.1%

B11: M205-F03 (Fab, V domains shown)
VH: EVQLLESGGGLVQPGGSLRLSCAASGFTFSSQQMVWVRQAPGKGLEWVSYISPSGGNTYYADSVKGRFTISRDNSKNTLYLQMNSLRAEDTAVYYCARVARGIAARSRTSYFDYWGQGTLVTVSS
VL: DIQMTQSPGTLSLSPGERATLSCRTSQFVNSNYLAWYQQTPGQAPRLLIYGASSRATGIPDRFSGTGYGTDFTLTISRLEPEDYGTYYCQQSSRTPWTFGQGTRVEIK
- % inhibition at 10 nM (human plasma kallikrein [2]): 58.6%

B12: M209-B01 (Fab, V domains shown)
VH: EVQLLESGGGLVQPGGSLRLSCAASGFTFSHYLMTWVRQAPGKGLEWVSYISPSGGHTIYADSVKGRFTISRDNSKNTLYLQMNSLRAEDTAVYYCARVARGIVARSRTSNFDQWGQGTLVTVSS
VL: DIQMTQSPGTLSLSPGERATLSCRTSQFVNSNYLAWYQQTPGQAPRLLIYGASSRATGIPDRFSGTGYGTDFTLTISRLEPEDYGTYYCQQSSRTPWTFGQGTRVEIK
- % inhibition at 10 nM (human plasma kallikrein [2]): 47%

B13: M207-A01 (Fab, V domains shown)
VH: EVQLLESGGGLVQPGGSLRLSCAASGFTFSHYLMTWVRQAPGKGLEWVSYISPSGGHTIYADSVKGRFTISRDNSKNTLYLQMNSLRAEDTAVYYCARVARGISARSRTSCFDYWGQGTLVTVSS
VL: DIQMTQSPGTLSLSPGERATLSCRTSQFVNSNYLAWYQQTPGQAPRLLIYGASSRATGIPDRFSGTGYGTDFTLTISRLEPEDYGTYYCQQSSRTPWTFGQGTRVEIK
- % inhibition at 10 nM (human plasma kallikrein [2]): 67.2%

B14: M207-C05 (Fab, V domains shown)
VH: EVQLLESGGGLVQPGGSLRLSCAASGFTFSHYLMTWVRQAPGKGLEWVSYISPSGGHTIYADSVKGRFTISRDNSKNTLYLQMNSLRAEDTAVYYCARVGRGIAARSRTSYFDKWGQGTLVTVSS
VL: DIQMTQSPGTLSLSPGERATLSCRTSQFVNSNYLAWYQQTPGQAPRLLIYGASSRATGIPDRFSGTGYGTDFTLTISRLEPEDYGTYYCQQSSRTPWTFGQGTRVEIK
- % inhibition at 10 nM (human plasma kallikrein [2]): 61.4%

B15: M203-A01 (Fab, V domains shown)
VH: EVQLLESGGGLVQPGGSLRLSCAASGFTFSNYLMAWVRQAPGKGLEWVSWIVPSGGYTEYADSVKGRFTISRDNSKNTLYLQMNSLRAEDTAVYYCARVARGIAARSRTSYFDYWGQGTLVTVSS
VL: DIQMTQSPGTLSLSPGERATLSCRTSQFVNSNYLAWYQQTPGQAPRLLIYGASSRATGIPDRFSGTGYGTDFTLTISRLEPEDYGTYYCQQSSRTPWTFGQGTRVEIK
- % inhibition at 10 nM (human plasma kallikrein [2]): 51.4%

B16: M206-C03 (Fab, V domains shown)
VH: EVQLLESGGGLVQPGGSLRLSCAASGFTFSQYMMVWVRQAPGKGLEWVSSIYSSGGNTPYADSVKGRFTISRDNSKNTLYLQMNSLRAEDTAVYYCARVARGIAARSRTSYFDYWGQGTLVTVSS
VL: DIQMTQSPGTLSLSPGERATLSCRTSQFVNSNYLAWYQQTPGQAPRLLIYGASSRATGIPDRFSGTGYGTDFTLTISRLEPEDYGTYYCQQSSRTPWTFGQGTRVEIK
- % inhibition at 10 nM (human plasma kallikrein [2]): 65.5%

B17: M205-A12 (Fab, V domains shown)
VH: EVQLLESGGGLVQPGGSLRLSCAASGFTFSQYDMIWVRQAPGKGLEWVSYISSSGGFTRYADSVKGRFTISRDNSKNTLYLQMNSLRAEDTAVYYCARVARGIAARSRTSYFDYWGQGTLVTVSS
VL: DIQMTQSPGTLSLSPGERATLSCRTSQFVNSNYLAWYQQTPGQAPRLLIYGASSRATGIPDRFSGTGYGTDFTLTISRLEPEDYGTYYCQQSSRTPWTFGQGTRVEIK
- % inhibition at 10 nM (human plasma kallikrein [2]): 58.8%

B18: X81-B01 (antibody, V domains shown)
VH: EVQLLESGGGLVQPGGSLRLSCAASGFTFSHYLMTWVRQAPGKGLEWVSYISPSGGHTIYADSVKGRFTISRDNSKNTLYLQMNSLRAEDTAVYYCARVARGIAARSRTSYFDYWGQGTLVTVSS
VL: EIVLTQSPGTLSLSPGERATLSCRTSQFVNSNYLAWYQQKPGQAPRLLIYGASSRATGIPDRFSGSGSGTDFTLTISRLEPEDFAVYYCQQSSRTPWTFGQGTKVEIK
notes: No variable domains are printed under the name X81-B01; also called germlined, codon optimized IgG version of X63-G06
- Ki (human plasma kallikrein [1]): 0.2 nM

B19: M209-E03 (Fab, V domains shown)
VH: EVQLLESGGGLVQPGGSLRLSCAASGFTFSHYLMTWVRQAPGKGLEWVSYISPSGGHTIYADSVKGRFTISRDNSKNTLYLQMNSLRAEDTAVYYCARQARGIAARSRTSYFDYWGQGTLVTVSS
VL: DIQMTQSPGTLSLSPGERATLSCRTSQFVNSNYLAWYQQTPGQAPRLLIYGASSRATGIPDRFSGTGYGTDFTLTISRLEPEDYGTYYCQQSSRTPWTFGQGTRVEIK
- % inhibition at 10 nM (human plasma kallikrein [2]): 68.8%

B20: M206-H04 (Fab, V domains shown)
VH: EVQLLESGGGLVQPGGSLRLSCAASGFTFSSYMMVWVRQAPGKGLEWVSSISPSGGYTIQADSVKGRFTISRDNSKNTLYLQMNSLRAEDTAVYYCARVARGIAARSRTSYFDYWGQGTLVTVSS
VL: DIQMTQSPGTLSLSPGERATLSCRTSQFVNSNYLAWYQQTPGQAPRLLIYGASSRATGIPDRFSGTGYGTDFTLTISRLEPEDYGTYYCQQSSRTPWTFGQGTRVEIK
- % inhibition at 10 nM (human plasma kallikrein [2]): 19%

B21: M208-D12 (Fab, V domains shown)
VH: EVQLLESGGGLVQPGGSLRLSCAASGFTFSHYLMTWVRQAPGKGLEWVSYISPSGGHTIYADSVKGRFTISRDNSKNTLYLQMNSLRAEDTAVYYCARLARGIAARSRTSYQDIWGQGTLVTVSS
VL: DIQMTQSPGTLSLSPGERATLSCRTSQFVNSNYLAWYQQTPGQAPRLLIYGASSRATGIPDRFSGTGYGTDFTLTISRLEPEDYGTYYCQQSSRTPWTFGQGTRVEIK
- % inhibition at 10 nM (human plasma kallikrein [2]): 43.7%
